Test results reported in patent publication US20250161473A1 (GAN AND LEE PHARMACEUTICALS, published 2025).

Legend:
TROP-2-his [1] = biological target: T1, TROP-2-his (UniProt P09758 27-274); experiment: SPR (Biacore), antibody captured on Protein A chip, TROP-2-his flowed over, 1:1 Langmuir fit
T1 construct: also called antigen TROP-2-his; not shown: his tag
T1 sequence (looked up): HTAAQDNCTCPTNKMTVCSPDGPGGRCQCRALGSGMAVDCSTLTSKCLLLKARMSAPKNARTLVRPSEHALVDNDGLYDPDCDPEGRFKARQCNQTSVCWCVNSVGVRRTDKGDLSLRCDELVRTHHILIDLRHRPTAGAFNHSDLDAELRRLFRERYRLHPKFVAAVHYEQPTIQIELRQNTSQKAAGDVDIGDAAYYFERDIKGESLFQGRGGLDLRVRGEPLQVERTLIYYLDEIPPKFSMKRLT
Description: (§1) In this test example, the affinity of the TROP-2 antibody and the TROP-2-ADC compound obtained according to the above examples to TROP-2 is detected by means of capturing antibody.
(§2) Use the Sensor Chip Protein A biosensor chip (Cytiva) to capture the antibody (TROP-2 antibody or TROP-2-ADC compound), then flow through the antigen TROP-2-his on the surface of the chip, and use the Biacore K8 instrument (Cytiva) Real-time detection of reaction signals to obtain association and dissociation curves. After the dissociation of each experiment cycle, the chip was washed and regenerated with regeneration buffer. After the experiment, GE Biacore K8 Evaluation version 3.0 software was used to fit the data with the (1:1) Langmuir model to obtain the affinity value.

human HER3-His antigen [2] = biological target: T2, human HER3-His antigen (human, UniProt P21860 20-643); experiment: SPR (Biacore 8K), antibody captured on Protein A chip, HER3-His at 0.625-40 nM as analyte
T2 construct: not shown: His tag
Method: (§3) The binding ability of naked antibody, HER3-ADC-19, HER3-ADC-20, HER3-ADC-21 to human HER3-His antigen was determined at 7 different concentrations (0.625-40 nM) using protein A biosensor chip.

TROP-2-his [3] = biological target: T1, TROP-2-his; experiment: SPR (Biacore), ADC captured on Protein A chip, TROP-2-his flowed over, 1:1 Langmuir fit
Description: as §1, §2

human HER3-His antigen [4] = biological target: T2, human HER3-His antigen; experiment: SPR (Biacore 8K), ADC captured on Protein A chip, HER3-His at 0.625-40 nM as analyte
Method: as §3

B1: anti-human TROP-2 monoclonal antibody (anti-hRS7 antibody) (antibody, human IgG1, kappa, V domains shown)
VH: QVQLQQSGSELKKPGASVKVSCKASGYTFTNYGMNWVKQAPGQGLKWMGWINTYTGEPTYTDDFKGRFAFSLDTSVSTAYLQISSLKADDTAVYFCARGGFGSSYWYFDVWGQGSLVTVSS
VL: DIQLTQSPSSLSASVGDRVSITCKASQDVSIAVAWYQQKPGKAPKLLIYSASYRYTGVPDRFSGSGSGTDFTLTISSLQPEDFAVYYCQQHYITPLTFGAGTKVEIKR
notes: also called Naked antibody (anti-TROP-2 monoclonal antibody); TROP-2 antibody
Question: With B1 as the binder, how does the Kd (TROP-2-his [1]) read?
Answer: 0.318 nM

B2: anti-human HER3 monoclonal antibody (antibody, human IgG1, kappa, V domains shown)
VH: QVQLQQWGAGLLKPSETLSLTCAVYGGSFSGYYWSWIRQPPGKGLEWIGEINHSGSTNYNPSLKSRVTISVETSKNQFSLKLSSVTAADTAVYYCARDKWTWYFDLWGRGTLVTVSS
VL: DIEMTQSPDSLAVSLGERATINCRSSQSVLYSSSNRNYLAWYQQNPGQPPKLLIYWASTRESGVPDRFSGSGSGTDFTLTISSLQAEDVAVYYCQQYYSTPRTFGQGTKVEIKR
notes: also called Naked antibody; HER3 antibody
Question: With B2 as the binder, how does the Kd (human HER3-His antigen [2]) read?
Answer: 1.41 nM

Question: And the koff (human HER3-His antigen [2])?
Answer: 0.000363 s⁻¹

Question: What about the kon (human HER3-His antigen [2]) of the same binder?
Answer: 257000 M⁻¹ s⁻¹

B3: TROP-2-ADC-3 (antibody, human IgG1, kappa, V domains shown)
VH: QVQLQQSGSELKKPGASVKVSCKASGYTFTNYGMNWVKQAPGQGLKWMGWINTYTGEPTYTDDFKGRFAFSLDTSVSTAYLQISSLKADDTAVYFCARGGFGSSYWYFDVWGQGSLVTVSS
VL: DIQLTQSPSSLSASVGDRVSITCKASQDVSIAVAWYQQKPGKAPKLLIYSASYRYTGVPDRFSGSGSGTDFTLTISSLQPEDFAVYYCQQHYITPLTFGAGTKVEIKR
modifications: drug-linker compound 50 coupled to cysteines of the reduced interchain disulfide bonds; positions not given; drug-linker compound 50 (maleimide linker, exatecan derivative) coupled to cysteines of the reduced interchain disulfide bonds; positions not given; DAR 14.74 for the whole antibody
Question: B3 was tested. Which Kd (TROP-2-his [3]) did it give?
Answer: 0.276 nM

B4: HER3-ADC-21 (antibody, human IgG1, kappa, V domains shown)
VH: QVQLQQWGAGLLKPSETLSLTCAVYGGSFSGYYWSWIRQPPGKGLEWIGEINHSGSTNYNPSLKSRVTISVETSKNQFSLKLSSVTAADTAVYYCARDKWTWYFDLWGRGTLVTVSS
VL: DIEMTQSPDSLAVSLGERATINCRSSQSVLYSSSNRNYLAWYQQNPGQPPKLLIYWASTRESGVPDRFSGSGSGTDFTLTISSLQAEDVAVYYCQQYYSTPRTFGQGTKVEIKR
modifications: drug-linker compound 68 coupled to cysteines of the reduced interchain disulfide bonds; positions not given; drug-linker compound 68 (maleimide linker, exatecan derivative) coupled to cysteines of the reduced interchain disulfide bonds; positions not given; DAR 8.00 for the whole antibody
Question: How did the Kd (human HER3-His antigen [4]) turn out when B4 was run?
Answer: 2.08 nM

Question: What about the koff (human HER3-His antigen [4]) of the same binder?
Answer: 0.000451 s⁻¹

Question: What about the kon (human HER3-His antigen [4]) of the same binder?
Answer: 217000 M⁻¹ s⁻¹

B5: TROP-2-ADC-4 (antibody, human IgG1, kappa, V domains shown)
VH: QVQLQQSGSELKKPGASVKVSCKASGYTFTNYGMNWVKQAPGQGLKWMGWINTYTGEPTYTDDFKGRFAFSLDTSVSTAYLQISSLKADDTAVYFCARGGFGSSYWYFDVWGQGSLVTVSS
VL: DIQLTQSPSSLSASVGDRVSITCKASQDVSIAVAWYQQKPGKAPKLLIYSASYRYTGVPDRFSGSGSGTDFTLTISSLQPEDFAVYYCQQHYITPLTFGAGTKVEIKR
modifications: drug-linker compound 51 coupled to cysteines of the reduced interchain disulfide bonds; positions not given; drug-linker compound 51 (maleimide linker, exatecan derivative) coupled to cysteines of the reduced interchain disulfide bonds; positions not given; DAR 8.49 for the whole antibody
Question: Which Kd (TROP-2-his [3]) does the source give for B5 here?
Answer: 0.293 nM

B6: TROP-2-ADC-19 (antibody, human IgG1, kappa, V domains shown)
VH: QVQLQQSGSELKKPGASVKVSCKASGYTFTNYGMNWVKQAPGQGLKWMGWINTYTGEPTYTDDFKGRFAFSLDTSVSTAYLQISSLKADDTAVYFCARGGFGSSYWYFDVWGQGSLVTVSS
VL: DIQLTQSPSSLSASVGDRVSITCKASQDVSIAVAWYQQKPGKAPKLLIYSASYRYTGVPDRFSGSGSGTDFTLTISSLQPEDFAVYYCQQHYITPLTFGAGTKVEIKR
modifications: drug-linker compound 66 coupled to cysteines of the reduced interchain disulfide bonds; positions not given; drug-linker compound 66 (maleimide linker, exatecan derivative) coupled to cysteines of the reduced interchain disulfide bonds; positions not given; DAR 4.65 for the whole antibody
Question: For B6, which Kd (TROP-2-his [3]) is on record?
Answer: 0.319 nM

B7: TROP-2-ADC-21 (antibody, human IgG1, kappa, V domains shown)
VH: QVQLQQSGSELKKPGASVKVSCKASGYTFTNYGMNWVKQAPGQGLKWMGWINTYTGEPTYTDDFKGRFAFSLDTSVSTAYLQISSLKADDTAVYFCARGGFGSSYWYFDVWGQGSLVTVSS
VL: DIQLTQSPSSLSASVGDRVSITCKASQDVSIAVAWYQQKPGKAPKLLIYSASYRYTGVPDRFSGSGSGTDFTLTISSLQPEDFAVYYCQQHYITPLTFGAGTKVEIKR
modifications: drug-linker compound 68 coupled to cysteines of the reduced interchain disulfide bonds; positions not given; drug-linker compound 68 (maleimide linker, exatecan derivative) coupled to cysteines of the reduced interchain disulfide bonds; positions not given; DAR 4.78 for the whole antibody
Question: How did the Kd (TROP-2-his [3]) turn out when B7 was run?
Answer: 0.275 nM

B8: TROP-2-ADC-23 (antibody, human IgG1, kappa, V domains shown)
VH: QVQLQQSGSELKKPGASVKVSCKASGYTFTNYGMNWVKQAPGQGLKWMGWINTYTGEPTYTDDFKGRFAFSLDTSVSTAYLQISSLKADDTAVYFCARGGFGSSYWYFDVWGQGSLVTVSS
VL: DIQLTQSPSSLSASVGDRVSITCKASQDVSIAVAWYQQKPGKAPKLLIYSASYRYTGVPDRFSGSGSGTDFTLTISSLQPEDFAVYYCQQHYITPLTFGAGTKVEIKR
modifications: drug-linker compound 70 coupled to cysteines of the reduced interchain disulfide bonds; positions not given; drug-linker compound 70 (maleimide linker, exatecan derivative) coupled to cysteines of the reduced interchain disulfide bonds; positions not given; DAR 6.42 for the whole antibody
Question: B8 was tested. Which Kd (TROP-2-his [3]) did it give?
Answer: 0.262 nM
